The values below come from the supplement of paper PMC9112550, “Optimization of the antimicrobial peptide Bac7 by deep mutational scanning” (BMC Biology, 2022).
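Note: peptides expressed intracellularly from a pBAD plasmid library in pooled LB shake-flask culture, induced with 0.3% L-arabinose, DNA abundance read by NGS, three biological replicates, DESeq2 with apeglm shrinkage.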

This series deals with Escherichia coli TOP10. Nature of the series: shrunken log2 fold change of peptide-encoding DNA abundance (4.5 h post-induction vs induction); higher = less antimicrobial activity (less host growth inhibition). The conditions noted are these: time post-induction: 4.5 h; library: site-saturation at positions 5, 18, 19, 20.
Regarding RRIRQRPPRLPRPRPRPRAMPRP, the “shrunken log2 fold change” value is 0.0219. The result for RRIRFRPPRLPRPRPRPNGQPRP reads -0.0712; that for RRIRCRPPRLPRPRPRPYCFPRP, -0.783.

Consider RRIRERPPRLPRPRPRPSEYPRP, for which the “shrunken log2 fold change” value is -0.27. As for RRIRIRPPRLPRPRPRPTMPPRP, the figure is -0.22. As for RRIRQRPPRLPRPRPRPVFGPRP, the figure is 0.13; as for RRIRHRPPRLPRPRPRPMHRPRP, 0.00128; as for RRIRYRPPRLPRPRPRPKSQPRP, -0.176. The result for RRIRFRPPRLPRPRPRPISRPRP reads 0.0107; that for RRIRFRPPRLPRPRPRPSHDPRP, -0.142. For the sequence RRIRVRPPRLPRPRPRPECCPRP, the “shrunken log2 fold change” value worked out at 0.0234. Regarding RRIRNRPPRLPRPRPRPVWIPRP, the “shrunken log2 fold change” value is -0.111.

For RRIRHRPPRLPRPRPRPTKTPRP, the “shrunken log2 fold change” value is -0.194.

Take RRIRIRPPRLPRPRPRPSGNPRP: the “shrunken log2 fold change” value turned out to be 0.0322. As for RRIRQRPPRLPRPRPRPFKRPRP, the figure is 0.0391.

For the sequence RRIRHRPPRLPRPRPRPGGEPRP, the “shrunken log2 fold change” value was found to be 0.183. The result for RRIRDRPPRLPRPRPRPTNPPRP reads -0.417; that for RRIRNRPPRLPRPRPRPWREPRP, 0.262. As for RRIRERPPRLPRPRPRPCYKPRP, the figure is -0.901; as for RRIRGRPPRLPRPRPRPKDSPRP, 0.244.

Turning to RRIRFRPPRLPRPRPRPEIVPRP, the “shrunken log2 fold change” value is -0.0888.

Regarding RRIRSRPPRLPRPRPRPYQKPRP, the “shrunken log2 fold change” value was -0.122. As to RRIRIRPPRLPRPRPRPHVTPRP, the “shrunken log2 fold change” value is -0.132. The result for RRIRCRPPRLPRPRPRPFSIPRP reads -0.261. For RRIRHRPPRLPRPRPRPCAQPRP, the “shrunken log2 fold change” value was 0.000337.

Take RRIRQRPPRLPRPRPRPPHCPRP: the “shrunken log2 fold change” value stood at 0.0459.

Take RRIRHRPPRLPRPRPRPDSCPRP: the “shrunken log2 fold change” value was -0.164. The result for RRIRRRPPRLPRPRPRPNEHPRP reads -0.118; that for RRIRHRPPRLPRPRPRPDFIPRP, -0.391; that for RRIRWRPPRLPRPRPRPNVWPRP, -0.308. As for RRIRYRPPRLPRPRPRPGRHPRP, the figure is -0.203; as for RRIRMRPPRLPRPRPRPIWYPRP, -0.158. The result for RRIRIRPPRLPRPRPRPCHLPRP reads -0.281; that for RRIRARPPRLPRPRPRPLCLPRP, 0.132. For the sequence RRIRWRPPRLPRPRPRPTIFPRP, the “shrunken log2 fold change” value worked out at 0.0443. As for RRIRDRPPRLPRPRPRPVYVPRP, the figure is -0.563. Take RRIRVRPPRLPRPRPRPDLEPRP: the “shrunken log2 fold change” value was -0.0782. As for RRIRDRPPRLPRPRPRPWCRPRP, the figure is 0.0772; as for RRIRTRPPRLPRPRPRPWDMPRP, -0.33; as for RRIRRRPPRLPRPRPRPRKDPRP, 0.302.

As to RRIRRRPPRLPRPRPRPNKVPRP, the “shrunken log2 fold change” value is -0.213.

Turning to RRIRFRPPRLPRPRPRPEYCPRP, the “shrunken log2 fold change” value is 0.0467. As for RRIRRRPPRLPRPRPRPAFGPRP, the figure is 0.348; as for RRIRCRPPRLPRPRPRPPQDPRP, 1.08; as for RRIRARPPRLPRPRPRPCMDPRP, 0.0143. The result for RRIRVRPPRLPRPRPRPIGMPRP reads 0.211; that for RRIRVRPPRLPRPRPRPALWPRP, 0.57. As for RRIRFRPPRLPRPRPRPTAYPRP, the figure is -0.243; as for RRIRCRPPRLPRPRPRPQPYPRP, -0.975; as for RRIRVRPPRLPRPRPRPLMIPRP, -0.361.
